B1: library; numbered along this chain (parent)
chain: MAAAAAAAAEQQSSNGPVKKSMREKAVERRSVNKEHNSNFKAGYIPIDEDRLHKTGLRGRKGNLAICVIILLFILAVINLIITLVIWAVIRIGPNGCDSMEFHESGLLRFKQVSDMGVIHPLYKSTVGGRRNENLVITGNNQPIVFQQGTTKLSVENNKTSITSDIGMQFFDPRTQNILFSTDYETHEFHLPSGVKSLNVQKASTERITSNATSDLNIKVDGRAIVRGNEGVFIMGKTIEFHMGGNMELKAENSIILNGSVMVSTTRLPSSSSGDQLGSGDWVRYKLCMCADGTLFKVQVTSQNMGCQISDNPCGNTH

Variants of: B1
Experiment: SGCB cell-surface expression functional score (HA stain, bin4 vs bin1, normalised to synonymous) (log10 ratio); higher = more cell-surface SGCB (functional)
How it was run: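 Codon-saturation libraries of HA-tagged, YFP-fused human beta-sarcoglycan were lentivirally transduced at MOI <0.1 into HEK293 cells stably expressing alpha-, gamma- and delta-sarcoglycan. YFP-positive cells were sorted after 72 hours, grown 5–7 days, stained on ice with Alexa Fluor 647 anti-HA, fixed, sorted into four 5% intensity bins and amplicon-sequenced. The functional score is the log ratio of highest-bin to lowest-bin variant frequency, taken as the median over codons and duplicate transductions. Synonymous variants were scaled per section to mean 0, SD 0.5.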

Going from MAAAAAAAAEQQSSNGPVKKSMREKAVERRSVNKEHNSNFKAGYIPIDEDRLHKTGLRGRKGNLAICVIILLFILAVINLIITLVIWAVIRIGPNGCDSMEFHESGLLRFKQVSDMGVIHPLYKSTVGGRRNENLVITGNNQPIVFQQGTTKLSVENNKTSITSDIGMQFFDPRTQNILFSTDYETHEFHLPSGVKSLNVQKASTERITKNATSDLNIKVDGRAIVRGNEGVFIMGKTIEFHMGGNMELKAENSIILNGSVMVSTTRLPSSSSGDQLGSGDWVRYKLCMCADGTLFKVQVTSQNMGCQISDNPCGNTH [S210K] to MAAAAAAAAEQQSSNGPVKKSMREKAVERRSVNKEHNSNFKAGYIPIDEDRLHKTGLRGRKGNLAICVIILLFILAVINLIITLVIWAVIRIGPNGCDSMEFHESGLLRFKQVSDMGVIHPLYKSTVGGRRNENLVITGNNQPIVFQQGTTKLSVENNKTSITSDIGMQFFDPRTQNILFSTDYETHEFHLPSGVKSLNVQKASTERITQNATSDLNIKVDGRAIVRGNEGVFIMGKTIEFHMGGNMELKAENSIILNGSVMVSTTRLPSSSSGDQLGSGDWVRYKLCMCADGTLFKVQVTSQNMGCQISDNPCGNTH [S210Q], the “SGCB cell-surface expression functional score (log10)” value rises from -1.43 to -1.03.

Compared with MAAAAAAAAEQQSSNGPVKKSMREKAVERRSVNKEHNSNFKAGYIPIDEDRLHKTGLRGRKGNLAICVIILLFILAVINLIITLVIWAVIRIGPNGCDSMEFHESGLLRFKQVSDMGVIHPLYKSTVGGRRNENLVITGNNQPIVFQQGTTKLSVENNKTSITSDIGMQFFDPRTQNILFSTDYETHEFHLPSGVKSLNVQKASTERITLNATSDLNIKVDGRAIVRGNEGVFIMGKTIEFHMGGNMELKAENSIILNGSVMVSTTRLPSSSSGDQLGSGDWVRYKLCMCADGTLFKVQVTSQNMGCQISDNPCGNTH [S210L], MAAAAAAAAEQQSSNGPVKKSMREKAVERRSVNKEHNSNFKAGYIPIDEDRLHKTGLRGRKGNLAICVIILLFILAVINLIITLVIWAVIRIGPNGCDSMEFHESGLLRFKQVSDMGVIHPLYKSTVGGRRNENLVITGNNQPIVFQQGTTKLSVENNKTSITSDIGMQFFDPRTQNILFSTDYETHEFHLPSGVKSLNVQKASTERITHNATSDLNIKVDGRAIVRGNEGVFIMGKTIEFHMGGNMELKAENSIILNGSVMVSTTRLPSSSSGDQLGSGDWVRYKLCMCADGTLFKVQVTSQNMGCQISDNPCGNTH [S210H] is higher in “SGCB cell-surface expression functional score (log10)” value: -1.26 for the first, -0.47 for the second.

First: MAAAAAAAAEQQSSNGPVKKSMREKAVERRSVNKEHNSNFKAGYIPIDEDRLHKTGLRGRKGNLAICVIILLFILAVINLIITLVIWAVIRIGPNGCDSMEFHESGLLRFKQVSDMGVIHPLYKSTVGGRRNENLVITGNNQPIVFQQGTTKLSVENNKTSITSDIGMQFFDPRTQNILFSTDYETHEFHLPSGVKSLNVQKASTERITINATSDLNIKVDGRAIVRGNEGVFIMGKTIEFHMGGNMELKAENSIILNGSVMVSTTRLPSSSSGDQLGSGDWVRYKLCMCADGTLFKVQVTSQNMGCQISDNPCGNTH [S210I]
Second: MAAAAAAAAEQQSSNGPVKKSMREKAVERRSVNKEHNSNFKAGYIPIDEDRLHKTGLRGRKGNLAICVIILLFILAVINLIITLVIWAVIRIGPNGCDSMEFHESGLLRFKQVSDMGVIHPLYKSTVGGRRNENLVITGNNQPIVFQQGTTKLSVENNKTSITSDIGMQFFDPRTQNILFSTDYETHEFHLPSGVKSLNVQKASTERITMNATSDLNIKVDGRAIVRGNEGVFIMGKTIEFHMGGNMELKAENSIILNGSVMVSTTRLPSSSSGDQLGSGDWVRYKLCMCADGTLFKVQVTSQNMGCQISDNPCGNTH [S210M]
The “SGCB cell-surface expression functional score (log10)” value of the first is higher: -0.9 for the first, -1.94 for the second.

First: MAAAAAAAAEQQSSNGPVKKSMREKAVERRSVNKEHNSNFKAGYIPIDEDRLHKTGLRGRKGNLAICVIILLFILAVINLIITLVIWAVIRIGPNGCDSMEFHESGLLRFKQVSDMGVIHPLYKSTVGGRRNENLVITGNNQPIVFQQGTTKLSVENNKTSITSDIGMQFFDPRTQNILFSTDYETHEFHLPSGVKSLNVQKASTERITTNATSDLNIKVDGRAIVRGNEGVFIMGKTIEFHMGGNMELKAENSIILNGSVMVSTTRLPSSSSGDQLGSGDWVRYKLCMCADGTLFKVQVTSQNMGCQISDNPCGNTH [S210T]
Second: MAAAAAAAAEQQSSNGPVKKSMREKAVERRSVNKEHNSNFKAGYIPIDEDRLHKTGLRGRKGNLAICVIILLFILAVINLIITLVIWAVIRIGPNGCDSMEFHESGLLRFKQVSDMGVIHPLYKSTVGGRRNENLVITGNNQPIVFQQGTTKLSVENNKTSITSDIGMQFFDPRTQNILFSTDYETHEFHLPSGVKSLNVQKASTERITRNATSDLNIKVDGRAIVRGNEGVFIMGKTIEFHMGGNMELKAENSIILNGSVMVSTTRLPSSSSGDQLGSGDWVRYKLCMCADGTLFKVQVTSQNMGCQISDNPCGNTH [S210R]
The “SGCB cell-surface expression functional score (log10)” value of the first is higher: -0.61 for the first, -1.31 for the second.

Going from MAAAAAAAAEQQSSNGPVKKSMREKAVERRSVNKEHNSNFKAGYIPIDEDRLHKTGLRGRKGNLAICVIILLFILAVINLIITLVIWAVIRIGPNGCDSMEFHESGLLRFKQVSDMGVIHPLYKSTVGGRRNENLVITGNNQPIVFQQGTTKLSVENNKTSITSDIGMQFFDPRTQNILFSTDYETHEFHLPSGVKSLNVQKASTERITPNATSDLNIKVDGRAIVRGNEGVFIMGKTIEFHMGGNMELKAENSIILNGSVMVSTTRLPSSSSGDQLGSGDWVRYKLCMCADGTLFKVQVTSQNMGCQISDNPCGNTH [S210P] to MAAAAAAAAEQQSSNGPVKKSMREKAVERRSVNKEHNSNFKAGYIPIDEDRLHKTGLRGRKGNLAICVIILLFILAVINLIITLVIWAVIRIGPNGCDSMEFHESGLLRFKQVSDMGVIHPLYKSTVGGRRNENLVITGNNQPIVFQQGTTKLSVENNKTSITSDIGMQFFDPRTQNILFSTDYETHEFHLPSGVKSLNVQKASTERITNNATSDLNIKVDGRAIVRGNEGVFIMGKTIEFHMGGNMELKAENSIILNGSVMVSTTRLPSSSSGDQLGSGDWVRYKLCMCADGTLFKVQVTSQNMGCQISDNPCGNTH [S210N], the “SGCB cell-surface expression functional score (log10)” value rises from -1.92 to -1.62.

From the supplement of paper PMC10266784
